Measurements taken from IntAct's records for PubMed 21185211.

B1: Septin-4 (Homo sapiens), O43236-6 (parent)
chain: MIKRFLEDTTDDGELSKFVKDFSGNASCHPPEAKTWASRPQVPEPRPQAPDLYDDDLEFRPPSRPQSSDNQQYFCAPAPLSPSARPRSPWGKLDPYDSSEDDKEYVGFATLPNQVHRKSVKKGFDFTLMVAGESGLGKSTLVNSLFLTDLYRDRKLLGAEERIMQTVEITKHAVDIEEKGVRLRLTIVDTPGFGDAVNNTECWKPVAEYIDQQFEQYFRDESGLNRKNIQDNRVHCCLYFISPFGHGYGPSLRLLAPPGAVKGTGQEHQGQGCH
partner: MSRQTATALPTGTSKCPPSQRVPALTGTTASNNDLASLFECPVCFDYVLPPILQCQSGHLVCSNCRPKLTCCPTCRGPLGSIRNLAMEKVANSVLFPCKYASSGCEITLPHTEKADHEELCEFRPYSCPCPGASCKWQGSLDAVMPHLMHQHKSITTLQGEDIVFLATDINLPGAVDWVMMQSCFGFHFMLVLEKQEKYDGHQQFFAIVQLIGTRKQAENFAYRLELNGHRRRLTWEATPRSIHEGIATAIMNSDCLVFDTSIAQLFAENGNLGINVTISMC

Variants of: B1
Details: with siah1_human SIAH1, Q8IUQ4

| Variant | effect of a mutation on the interaction |
| --- | --- |
| MIKRFLEDTTDDGELSKFVKDFSGNASCHPPEAKTWASRPQAPAPAPQAPDLYDDDLEFRPPSRPQSSDNQQYFCAPAPLSPSARPRSPWGKLDPYDSSEDDKEYVGFATLPNQVHRKSVKKGFDFTLMVAGESGLGKSTLVNSLFLTDLYRDRKLLGAEERIMQTVEITKHAVDIEEKGVRLRLTIVDTPGFGDAVNNTECWKPVAEYIDQQFEQYFRDESGLNRKNIQDNRVHCCLYFISPFGHGYGPSLRLLAPPGAVKGTGQEHQGQGCH [V42A;E44A;R46A] | disrupting interaction |
| MIKRFLEDTTDDGELSKFVKDFSGNASCHPPEAKTWASRAQAPAPAPQAPDLYDDDLEFRPPSRPQSSDNQQYFCAPAPLSPSARPRSPWGKLDPYDSSEDDKEYVGFATLPNQVHRKSVKKGFDFTLMVAGESGLGKSTLVNSLFLTDLYRDRKLLGAEERIMQTVEITKHAVDIEEKGVRLRLTIVDTPGFGDAVNNTECWKPVAEYIDQQFEQYFRDESGLNRKNIQDNRVHCCLYFISPFGHGYGPSLRLLAPPGAVKGTGQEHQGQGCH [P40A;V42A;E44A;R46A] | disrupting interaction |
